Literature values as cited in article PMC7862380.

How the values were obtained:
[1] = molecular target: Met1-linked di-ubiquitin (Homo sapiens) (UniProt P0CG48)
[2] = molecular target: Lys63-linked di-ubiquitin (Homo sapiens) (UniProt P0CG48)

Chain of OTULIN (Q96BN8 whole entry): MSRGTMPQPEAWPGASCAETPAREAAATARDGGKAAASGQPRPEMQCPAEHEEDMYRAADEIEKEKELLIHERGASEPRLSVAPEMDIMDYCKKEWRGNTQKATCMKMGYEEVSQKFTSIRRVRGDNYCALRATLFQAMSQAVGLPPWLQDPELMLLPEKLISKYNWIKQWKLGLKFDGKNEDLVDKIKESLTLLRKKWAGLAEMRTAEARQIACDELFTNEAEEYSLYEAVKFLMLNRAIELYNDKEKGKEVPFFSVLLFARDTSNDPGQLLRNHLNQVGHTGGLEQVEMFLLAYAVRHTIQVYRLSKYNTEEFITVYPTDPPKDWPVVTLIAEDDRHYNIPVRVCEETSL

## OTULIN (from UniProt Q96BN8)
[1]
  Kd: 0.12 µM
[2]
  Kd: 12 µM
